The values below come from PMC5247461.

The test has as its target OsPUB2 recombinant protein, bacterially expressed ((His)6-OsPUB2 and MBP-OsPUB2) (rice (Oryza sativa L.)).

Regarding “OsPUB3 recombinant protein, bacterially expressed ((His)6-OsPUB3 and MBP-OsPUB3) (natural protein)”, the apparent half-life of MBP-OsPUB2 in mock-treated rice cell-free extract when mixed with (His)6-OsPUB3 (150 min without it); cell-free degradation assay, 0-6 h at 30°C was 4.17 h and the apparent half-life of MBP-OsPUB3 in mock-treated rice cell-free extract when mixed with (His)6-OsPUB2 (140 min without it); cell-free degradation assay, 0-6 h at 30°C was 5.83 h.
